From paper doi:10.1101/2022.08.08.503151

Molecular target: 80S ribosome (yeast) (S. cerevisiae (endogenous in TB50a)) (UniProt P14126)
Test: co-sedimentation

Sequence of UniProt P14126 (P14126 whole entry, looked up): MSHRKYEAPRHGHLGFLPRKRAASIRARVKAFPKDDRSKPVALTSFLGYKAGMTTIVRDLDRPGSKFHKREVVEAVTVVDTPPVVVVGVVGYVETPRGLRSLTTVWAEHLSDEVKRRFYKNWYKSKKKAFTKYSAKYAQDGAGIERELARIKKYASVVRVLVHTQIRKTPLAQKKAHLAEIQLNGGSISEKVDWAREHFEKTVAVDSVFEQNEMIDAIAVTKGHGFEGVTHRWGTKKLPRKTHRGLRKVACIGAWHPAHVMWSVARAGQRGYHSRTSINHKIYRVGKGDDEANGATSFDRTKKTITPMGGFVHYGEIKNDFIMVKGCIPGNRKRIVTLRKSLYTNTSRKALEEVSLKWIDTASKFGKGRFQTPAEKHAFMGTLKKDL

fold accumulation in the 80S fraction, without CHX against CHX-treated: 3 fold
B1: Stm1 (suppressor of target of Myb protein 1) (natural protein)
chain: MSNPFDLLGNDVEDADVVVLPPKEIVKSNTSSKKADVPPPSADPSKARKNRPRPSGNEGAIRDKTAGRRNNRSKDVTDSATTKKSNTRRATDRHSRTGKTDTKKKVNQGWGDDKKELSAEKEAQADAAAEIAEDAAEAEDAGKPKTAQLSLQDYLNQQANNQFNKVPEAKKVELDAERIETAEKEAYVPATKVKNVKSKQLKTKEYLEFDATFVESNTRKNFGDRNNNSRNNFNNRRGGRGARKGNNTANATNSANTVQKNRNIDVSNLPSLA
